The test addresses S. pneumoniae DNA topoisomerase I (TopoI), purified (S. pneumoniae).

In turn, “histidine-tagged StaR (H6-StaR), product of spr0929 of Streptococcus pneumoniae R6 (natural protein)” gave a relaxation of pBR322 by TopoI in vitro (37 °C, 1 h) with increasing StaR concentrations; percent of topoisomers (including OC/RC forms) at the highest StaR concentration (CCC form fell to 2.5%) of 97.5%.

(Values after publication PMC10053502.)
